T1: human CD73 antigen (human, UniProt P21589 27-547)
T1 construct: also called Biotinylated Human CD73
T1 sequence (looked up): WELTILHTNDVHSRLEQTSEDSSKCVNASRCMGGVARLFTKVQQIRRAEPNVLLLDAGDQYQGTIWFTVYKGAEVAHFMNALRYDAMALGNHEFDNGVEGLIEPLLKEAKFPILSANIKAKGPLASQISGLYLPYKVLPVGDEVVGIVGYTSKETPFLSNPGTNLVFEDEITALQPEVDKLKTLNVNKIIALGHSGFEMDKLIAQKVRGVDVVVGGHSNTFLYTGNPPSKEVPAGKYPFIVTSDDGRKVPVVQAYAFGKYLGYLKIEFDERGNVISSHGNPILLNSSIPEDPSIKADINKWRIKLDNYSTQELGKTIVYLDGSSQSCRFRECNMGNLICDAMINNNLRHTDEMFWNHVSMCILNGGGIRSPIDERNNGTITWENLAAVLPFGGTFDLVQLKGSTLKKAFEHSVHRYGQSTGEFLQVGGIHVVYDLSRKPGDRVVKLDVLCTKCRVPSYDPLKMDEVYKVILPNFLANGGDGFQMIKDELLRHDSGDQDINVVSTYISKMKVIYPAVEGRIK

T2: cynomolgus monkey CD73 antigen (cynomolgus monkey, UniProt A0A2K5V5U7 27-547)
T2 construct: also called Biotinylated cynomolgus monkey CD73
T2 sequence: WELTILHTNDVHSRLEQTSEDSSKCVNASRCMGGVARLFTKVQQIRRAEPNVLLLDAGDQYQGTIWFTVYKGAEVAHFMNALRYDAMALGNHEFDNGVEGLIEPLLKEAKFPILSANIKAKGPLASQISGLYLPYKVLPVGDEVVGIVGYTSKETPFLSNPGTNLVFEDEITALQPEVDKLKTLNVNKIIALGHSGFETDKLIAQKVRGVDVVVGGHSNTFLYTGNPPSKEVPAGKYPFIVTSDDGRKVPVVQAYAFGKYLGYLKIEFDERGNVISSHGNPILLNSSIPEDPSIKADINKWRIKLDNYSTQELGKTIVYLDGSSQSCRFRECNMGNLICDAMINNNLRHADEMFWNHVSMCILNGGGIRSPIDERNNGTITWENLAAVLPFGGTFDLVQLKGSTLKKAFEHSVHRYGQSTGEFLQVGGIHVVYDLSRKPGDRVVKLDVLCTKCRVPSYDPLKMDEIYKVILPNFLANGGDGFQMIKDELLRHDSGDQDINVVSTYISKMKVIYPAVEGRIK

T3: human CD73 expressed on the cell surface (human, UniProt P21589 27-549)
T3 sequence: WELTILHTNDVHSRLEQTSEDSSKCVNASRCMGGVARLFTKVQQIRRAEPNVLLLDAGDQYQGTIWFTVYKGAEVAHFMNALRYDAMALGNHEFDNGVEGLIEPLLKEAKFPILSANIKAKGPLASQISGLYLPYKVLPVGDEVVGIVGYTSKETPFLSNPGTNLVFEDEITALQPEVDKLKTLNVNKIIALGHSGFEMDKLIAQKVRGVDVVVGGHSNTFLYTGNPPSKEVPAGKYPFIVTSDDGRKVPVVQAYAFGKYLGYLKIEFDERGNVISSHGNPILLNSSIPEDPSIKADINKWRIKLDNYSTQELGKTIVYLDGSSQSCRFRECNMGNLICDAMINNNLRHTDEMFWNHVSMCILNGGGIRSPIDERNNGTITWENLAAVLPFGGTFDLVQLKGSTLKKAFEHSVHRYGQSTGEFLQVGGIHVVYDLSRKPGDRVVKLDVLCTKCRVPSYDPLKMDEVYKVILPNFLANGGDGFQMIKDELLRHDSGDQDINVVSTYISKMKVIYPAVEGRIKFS


How the values were obtained:
[1] = molecular target: T1, human CD73 antigen; assay: ForteBio BLI; IgG on AHQ sensor, 100 nM antigen; bivalent; 1:1 model
Method: (§1) Briefly, the sensor was equilibrated off-line in assay buffer for 30 min, then on-line detection was carried out for 60 sec to establish a baseline. The purified antibody obtained as described above was loaded on-line to the AHQ sensor (ForteBio) for ForteBio affinity determination. The sensor loaded with the antibody was then exposed to 100 nM of human or cynomolgus monkey antigen for 5 minutes, after which the sensor was transferred to assay buffer for dissociation for 5 minutes to determine the dissociation rate. Kinetic analysis was performed by using a 1:1 binding model.

[2] = molecular target: T2, cynomolgus monkey CD73 antigen; assay: as above
Method: as §1

[3] = molecular target: T3, human CD73 expressed on the cell surface; assay: cell-based or functional assay
[4] = molecular target: T1, human CD73 antigen; assay: ForteBio BLI; antigen on sensor, 100 nM scFv; monovalent; 1:1 model
Method: (§2) Human or cynomolgus monkey CD73 antigen protein was loaded on-line to the AHQ sensor (ForteBio) for ForteBio affinity measurement. […] Kinetic analysis was performed by using a 1:1 binding model.

[5] = molecular target: T2, cynomolgus monkey CD73 antigen; assay: as above
Method: as §2

[6] = molecular target: T3, human CD73 expressed on the cell surface; assay: cell-based or functional assay; remark: listed apart in the source

Row | Binder | Kd [1] [nM] | Kd [2] [nM] | CD73 enzymatic activity assay IC50 (Calu-6 cells, CellTiter-Glo) [3] [µg/mL] | Kd [4] [nM] | Kd [5] [nM] | IC50 for inhibiting the enzymatic activity of CD73 (Calu-6 cells) [6] [µg/mL]
1 | ADI-34086 (antibody, human IgG4 S228P, kappa, F234A L235A, V domains shown, Parental antibody) VH: EVQLLESGGGLVQPGGSLRLSCAASGFTFSNYAMSWVRQAPGKGLEWVSAISGSGGSTYYADSVKGRFTISRDNSKNTLYLQMNSLRAEDTAVYYCARGGPYGSGSYWDTFDYWGQGTLVTVSS VL: EIVMTQSPATLSVSPGERATLSCRASQSVSSNLAWYQQKPGQAPRLLIYGASTRATGIPARFSGSGSGTEFTLTISSLQSEDFAVYYCQQYTNHYTFGGGTKVEIKR | 1.23 | 1.9 | 0.089 | – | – | –
2 | ADI-34104 (antibody, human IgG4 S228P, kappa, F234A L235A, V domains shown, Parental antibody) VH: QVQLQESGPGLVKPSETLSLTCAVSGYSISSGYYWGWIRQPPGKGLEWIGSIYHSGSTYYNPSLKSRVTISVDTSKNQFSLKLSSVTAADTAVYYCARASIYTPPPEYFQHWGQGTLVTVSS VL: DIQMTQSPSTLSASVGDRVTITCRASQSISSWLAWYQQKPGKAPKLLIYDASSLESGVPSRFSGSGSGTEFTLTISSLQPDDFATYYCQQSRIYSTFGGGTKVEIKR | 0.847 | – | 0.142 | – | – | –
3 | scfv fragment of ADI-37542 (scFv, V domains shown) VH: QVQLQESGPGLVKPSETLSLTCAVSGYSISEGYYWGWIRQPPGKGLEWIGSIYHTGFTYYNPSLKSRVTISVDTSKNQFSLKLSSVTAADTAVYYCARASIYTPPPEYFQHWGQGTLVTVSS VL: DIQMTQSPSTLSASVGDRVTITCRASQSISSWLAWYQQKPGKAPKLLIYDASSLESGVPSRFSGSGSGTEFTLTISSLQPDDFATYYCQQSRIYSTFGGGTKVEIK | – | – | – | 6.04 | 5.47 | –
4 | scfv fragment of ADI-37543 (scFv, V domains shown) VH: QVQLQESGPGLVKPSETLSLTCAVSGYSISSGYYWAWIRQPPGKGLEWIGSIFHSGFTFYNPSLKSRVTISVDTSKNQFSLKLSSVTAADTAVYYCARASIYTPPPEYFQHWGQGTLVTVSS VL: DIQMTQSPSTLSASVGDRVTITCRASQSISSWLAWYQQKPGKAPKLLIYDASSLESGVPSRFSGSGSGTEFTLTISSLQPDDFATYYCQQSRIYSTFGGGTKVEIK | – | – | – | 3.85 | 2.99 | –
5 | scfv fragment of ADI-37532 (scFv, V domains shown) VH: QVQLVESGGGVVQPGRSLRLSCAASGFTFSSYSMHWVRQAPGKGLEWVAHIVEGSDKYYADSVKGRFTISRDNSKNTLYLQMNSLRAEDTAVYYCARSRYDWSLFDIWGQGTMVTVSS VL: EIVLTQSPGTLSLSPGERATLSCGASQSVSSSYLAWYQQKPGQAPRLLIYGASSRATGIPDRFSGSGSGTDFTLTISRLEPEDFAVYYCQQYVLYPFTFGGGTKVEIK | – | – | – | 0.581 | 0.53 | –
6 | ADI-34071 (antibody, human IgG4 S228P, kappa, F234A L235A, V domains shown, Parental antibody from the yeast library) VH: EVQLVESGGGLVQPGRSLRLSCAASGFTFDDYAMHWVRQAPGKGLEWVSGISWSSGSIGYADSVKGRFTISRDNAKNSLYLQMNSLRAEDTAVYYCAKDRRYGLTYGMDVWGQGTTVTVSS VL: not shown | 0.892 | 1.34 | 0.171 | – | – | –
7 | ADI-34074 (antibody, human IgG4 S228P, kappa, F234A L235A, V domains shown, Parental antibody; also called AD-34074) VH: EVQLVESGGGLVQPGRSLRLSCAASGFTFDDYAMHWVRQAPGKGLEWVSGISWSSGSIGYADSVKGRFTISRDNAKNSLYLQMNSLRAEDTAVYYCAKGKYLPTGSVDYWGQGTLVTVSS VL: EIVLTQSPGTLSLSPGERATLSCRASQSVSSSYLAWYQQKPGQAPRLLIYGASSRATGIPDRFSGSGSGTDFTLTISRLEPEDFAVYYCQQYYDYPPITFGGGTKVEIKR | 2.12 | 3.13 | 0.476 | – | – | –
8 | scfv fragment of ADI-37497 (scFv, V domains shown) VH: EVQLVESGGGLVQPGGSLRLSCAASGFTFDDYFMHWVRQAPGKGLEWVSGISWSSGPIDYADSVKGRFTISRDNAKNSLYLQMNSLRAEDTAVYYCAKGKYLPTGSVDYWGQGTLVTVSS VL: EIVLTQSPGTLSLSPGERATLSCRASQSVSSSYLAWYQQKPGQAPRLLIYGASSRATGIPDRFSGSGSGTDFTLTISRLEPEDFAVYYCQQYYDYPPITFGGGTKVEIK | – | – | – | 10.2 | 8.82 | –
9 | scfv fragment of ADI-37496 (scFv, V domains shown) VH: EVQLVESGGGLVQPGRSLRLSCAASGFTFDDFYMHWVRQAPGKGLEWVSGISWSSTSIDYADSVKGRFTISRDNAKNSLYLQMNSLRAEDTAVYYCAKGKYLPTGSVDYWGQGTLVTVSS VL: EIVLTQSPGTLSLSPGERATLSCRASQSVSSSYLAWYQQKPGQAPRLLIYGASSRATGIPDRFSGSGSGTDFTLTISRLEPEDFAVYYCQQYYDYPPITFGGGTKVEIK | – | – | – | 13.8 | 13.7 | –
10 | ADI-34095 (antibody, human IgG4 S228P, kappa, F234A L235A, V domains shown) VH: QVQLVESGGGVVQPGRSLRLSCAASGFTFSSYGMHWVRQAPGKGLEWVAVISYEGSNKYYADSVKGRFTISRDNSKNTLYLQMNSLRAEDTAVYYCARGGARYPIAFDIWGQGTMVTVSS VL: DIQLTQSPSSVSASVGDRVTITCRASQDISSWLAWYQQKPGKAPKLLIYAASSLQSGVPSRFSGSGSGTDFTLTISSLQPEDFATYYCQQANDFPITFGGGTKVEIKR | – | – | 0.279 | – | – | –
11 | scfv fragment of ADI-37513 (scFv, V domains shown) VH: EVQLLESGGGVVQPGRSLRLSCAASGFTFNFYGMHWVRQAPGKGLEWVAVINDEGINKYYADSVKGRFTISRDNSKNTLYLQMNSLRAEDTAVYYCARGGARYPIAFDIWGQGTMVTVSS VL: DIQLTQSPSSVSASVGDRVTITCRASQDISSWLAWYQQKPGKAPKLLIYAASSLQSGVPSRFSGSGSGTDFTLTISSLQPEDFATYYCQQANDFPITFGGGTKVEIK | – | – | – | 2.84 | 2.26 | –
12 | scfv fragment of ADI-37522 (scFv, V domains shown) VH: QVQLVESGGGVVQPGRSLRLSCAASGFTFSHYGMHWVRQAPGKGLEWVAVISDEGSNKYYADSVKGRFTISRDNSKNTLYLQMNSLRAEDTAVYYCARGWLRYPIAFDIWGQGTMVTVSS VL: DIQLTQSPSSVSASVGDRVTITCRASQDISSWLAWYQQKPGKAPKLLIYAASSLQSGVPSRFSGSGSGTDFTLTISSLQPEDFATYYCQQANDFPITFGGGTKVEIK | – | – | – | 2.43 | 2.93 | –
13 | Oleclumab (antibody, V domains shown) VH: EVQLLESGGGLVQPGGSLRLSCAASGFTFSSYAYSWVRQAPGKGLEWVSAISGSGGRTYYADSVKGRFTISRDNSKNTLYLQMNSLRAEDTAVYYCARLGYGRVDEWGRGTLVTVSS VL: QSVLTQPPSASGTPGQRVTISCSGSLSNIGRNPVNWYQQLPGTAPKLLIYLDNLRLSGVPDRFSGSKSGTSASLAISGLQSEDEADYYCATWDDSHPGWTFGGGTKLTVL | 0.948 | 0.96 | 0.167 | – | – | 0.177
14 | ADI-34101 (antibody, human IgG4 S228P, kappa, F234A L235A, V domains shown, Parental antibody) VH: QVQLVESGGGVVQPGRSLRLSCAASGFTFSSYGMHWVRQAPGKGLEWVAVISYEGSNKYYADSVKGRFTISRDNSKNTLYLQMNSLRAEDTAVYYCARSRYDWSLFDIWGQGTMVTVSS VL: EIVLTQSPGTLSLSPGERATLSCRASQSVSSSYLAWYQQKPGQAPRLLIYGASSRATGIPDRFSGSGSGTDFTLTISRLEPEDFAVYYCQQYVLYPFTFGGGTKVEIKR | 1.07 | 1.57 | 0.153 | – | – | –
